# Experimental data taken from patent publication US20180118829A1 (JOUNCE THERAPEUTICS, published 2018).
# Residue numbers refer to the chain shown, from its start.
# T1: Mouse PD-1 (monovalent antigen) (mouse, UniProt Q02242 25-167, limits assumed)
# T1 sequence (looked up): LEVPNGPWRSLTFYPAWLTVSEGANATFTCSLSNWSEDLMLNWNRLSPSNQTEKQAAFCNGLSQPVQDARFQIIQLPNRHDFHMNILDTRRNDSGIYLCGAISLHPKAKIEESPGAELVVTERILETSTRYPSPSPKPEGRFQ
# B1: antibody 13406 (antibody, V domains shown)
# VH: QVQLVQSGAEVKKPGASVKVSCKASGYTFDQYYMHWVRQAPGQGLEWMGIINPSGGSTAYAQKFQGRVTMTRDTSTSTVYMELSSLRSEDTAVYYCARGGTYYDYTYWGQGTLVTVSS
# VL: DIQMTQSPSTLSASVGDRVTITCRASQSISSWLAWYQQKPGKAPKLLIYEASSLESGVPSRFSGSGSGTEFTLTISSLQPDDFATYYCQQYNSFPPTFGGGTKVEIK
# B2: 13407 Fab (Fab, V domains shown)
# VH: B1 VH with D30P, Q31S, S54E
# VL: B1 VL
# B3: antibody 13405 (antibody, V domains shown)
# VH: QVQLVQSGAEVKKPGASVKVSCKASGYTFASYYMGWVRQAPGQGLEWMGIINPAGGSTAYAQKFQGRVTMTRDTSTSTVYMELSSLRSEDTAVYYCARHEYGMDVWGQGTTVTVSS
# VL: B1 VL
# B4: antibody 12228 (antibody, V domains shown)
# VH: B1 VH with D30T, Q31S, A59S
# VL: B1 VL
# B5: antibody 13408 (antibody, V domains shown)
# VH: B1 VH with D30S, Q31D, S57V
# VL: B1 VL
# B6: antibody 13407 (antibody, V domains shown)
# VH: B1 VH with D30P, Q31S, S54E
# VL: B1 VL
# Assays:
# [1] = target: T1, Mouse PD-1 (monovalent antigen); assay: ForteBio BLI, IgG on AHQ sensor, monovalent antigen in solution
# Experimental: (§1) The affinity of the PD-1 antibodies was determined by measuring their KD by ForteBio or MSD-SET. […] Briefly, ForteBio affinity measurements were performed by loading IgGs on-line onto AHQ sensors. Sensors were equilibrated off-line in assay buffer for 30 min and then monitored on-line for 60 seconds for baseline establishment. Sensors with loaded IgGs were exposed to 100 nM antigen for 5 minutes, afterwards they were transferred to assay buffer for 5 min for off-rate measurement. Kinetics were analyzed using the 1:1 binding model.
# [2] = target: Human PD-1 (monovalent antigen) (human, UniProt Q15116 25-167, limits assumed); assay: as above
# Chain of Human PD-1 (monovalent antigen) (Q15116 25-167 limits assumed): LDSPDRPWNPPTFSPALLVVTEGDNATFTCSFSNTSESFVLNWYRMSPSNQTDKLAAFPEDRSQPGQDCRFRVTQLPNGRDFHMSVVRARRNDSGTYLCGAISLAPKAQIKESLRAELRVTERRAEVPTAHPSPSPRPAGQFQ
# Experimental: as §1
# [3] = target: Human PD-1 I126A ECD-Fc-His6 (human); assay: BLI (ForteBio OctetRED96), PD-1 ECD-Fc-His6 panel; Reduced = affinity reduced >10-fold and <100-fold vs WT human PD-1
# Chain of Human PD-1 I126A ECD-Fc-His6 (human) (chain, as listed by the source I126A I126A limits assumed): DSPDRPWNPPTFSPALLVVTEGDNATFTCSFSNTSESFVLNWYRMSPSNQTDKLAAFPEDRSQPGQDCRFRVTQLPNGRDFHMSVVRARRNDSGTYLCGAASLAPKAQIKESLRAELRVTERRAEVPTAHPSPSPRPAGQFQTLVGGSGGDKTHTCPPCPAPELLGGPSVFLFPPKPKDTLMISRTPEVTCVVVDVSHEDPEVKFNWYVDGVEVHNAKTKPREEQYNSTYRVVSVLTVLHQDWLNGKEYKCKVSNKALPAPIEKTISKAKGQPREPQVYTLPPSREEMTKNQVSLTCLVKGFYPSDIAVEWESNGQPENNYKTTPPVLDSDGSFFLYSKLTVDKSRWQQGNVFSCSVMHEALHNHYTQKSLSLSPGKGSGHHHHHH
# Experimental: (§2) All protein interactions were assessed on a ForteBio OctetRED96 instrument. Proteins were diluted in kinetics buffer formulation (PBS +0.1% BSA, 0.02% Tween20, 0.05% sodium azide) with a sample volume was 220 μl/well. Ligand concentrations were normalized at 10 μg/ml and analyte concentrations at 100 nM. The blocking reagent was employed at a concentration of 250 μg/ml. Sensor equilibration time was set for 60 sec, and sample loading time established at 300 sec. Human Fc blocking time was set for 300 sec. Analysis of association time was set for 300 sec and dissociation time for 600 sec.
# [4] = target: Human PD-1 L128A ECD-Fc-His6 (human); assay: as above
# Chain of Human PD-1 L128A ECD-Fc-His6 (human) (chain, as listed by the source L128A L128A limits assumed): as the sequence (chain, as listed by the source I126A I126A limits assumed) above, with A101I, L103A counted along it
# Experimental: as §2
# [5] = target: Human PD-1 D85G/R86L ECD-Fc-His6 (human); assay: BLI (ForteBio OctetRED96), PD-1 ECD-Fc-His6 panel; Y = affinity within ~5-fold of WT human PD-1
# Chain of Human PD-1 D85G/R86L ECD-Fc-His6 (human) (chain, as listed by the source D85G R86L D85G R86L limits assumed): as the sequence (chain, as listed by the source I126A I126A limits assumed) above, with D60G, R61L, A101I counted along it
# Experimental: as §2
# [6] = target: Human PD-1 D85G ECD-Fc-His6 (human); assay: as above
# Chain of Human PD-1 D85G ECD-Fc-His6 (human) (chain, as listed by the source D85G D85G limits assumed): as the sequence (chain, as listed by the source I126A I126A limits assumed) above, with D60G, A101I counted along it
# Experimental: as §2
# [7] = target: Rat P129H PD-1 ECD-Fc-His6 (rat); assay: as above
# Chain of Rat P129H PD-1 ECD-Fc-His6 (rat) (chain, as listed by the source P129H P129H limits assumed): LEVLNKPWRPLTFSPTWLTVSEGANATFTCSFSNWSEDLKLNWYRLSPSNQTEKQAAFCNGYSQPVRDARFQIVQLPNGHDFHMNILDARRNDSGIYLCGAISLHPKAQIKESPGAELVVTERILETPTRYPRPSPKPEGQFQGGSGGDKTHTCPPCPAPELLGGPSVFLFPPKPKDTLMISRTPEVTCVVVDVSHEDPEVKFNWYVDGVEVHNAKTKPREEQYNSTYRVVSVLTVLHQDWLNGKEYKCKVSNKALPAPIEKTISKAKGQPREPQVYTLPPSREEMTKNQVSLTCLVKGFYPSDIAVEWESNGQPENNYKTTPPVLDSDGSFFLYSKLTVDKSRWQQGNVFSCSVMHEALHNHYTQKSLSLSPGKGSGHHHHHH
# Experimental: as §2
# [8] = target: T2, Human PD-1 N33-Q167 ECD-Fc-His6 (human); assay: as above
# T2 construct: also called N-terminal truncated variant N33-Q167
# T2 sequence (chain, as listed by the source limits assumed): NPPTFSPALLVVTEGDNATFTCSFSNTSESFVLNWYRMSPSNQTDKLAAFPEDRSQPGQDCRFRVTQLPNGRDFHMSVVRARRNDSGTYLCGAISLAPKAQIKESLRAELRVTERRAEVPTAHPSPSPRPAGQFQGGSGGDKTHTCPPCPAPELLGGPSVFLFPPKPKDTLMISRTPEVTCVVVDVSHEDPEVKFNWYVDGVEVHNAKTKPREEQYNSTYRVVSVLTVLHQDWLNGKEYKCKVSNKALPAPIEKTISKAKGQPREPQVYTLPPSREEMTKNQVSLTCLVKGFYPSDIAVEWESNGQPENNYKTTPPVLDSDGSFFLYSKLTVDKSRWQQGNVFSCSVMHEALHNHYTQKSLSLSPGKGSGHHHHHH
# Experimental: as §2
# [9] = target: Human PD-1 R86L ECD-Fc-His6 (human); assay: as above
# Chain of Human PD-1 R86L ECD-Fc-His6 (human) (chain, as listed by the source R86L R86L limits assumed): as the sequence (chain, as listed by the source I126A I126A limits assumed) above, with R61L, A101I counted along it
# Experimental: as §2
# [10] = target: T3, Cynomolgus monkey PD-1 ECD-Fc-His6 (cynomolgus monkey); assay: as above
# T3 construct: also called Cyno WT PD-1 ECD-Fc fusion
# T3 sequence (chain, as listed by the source limits assumed): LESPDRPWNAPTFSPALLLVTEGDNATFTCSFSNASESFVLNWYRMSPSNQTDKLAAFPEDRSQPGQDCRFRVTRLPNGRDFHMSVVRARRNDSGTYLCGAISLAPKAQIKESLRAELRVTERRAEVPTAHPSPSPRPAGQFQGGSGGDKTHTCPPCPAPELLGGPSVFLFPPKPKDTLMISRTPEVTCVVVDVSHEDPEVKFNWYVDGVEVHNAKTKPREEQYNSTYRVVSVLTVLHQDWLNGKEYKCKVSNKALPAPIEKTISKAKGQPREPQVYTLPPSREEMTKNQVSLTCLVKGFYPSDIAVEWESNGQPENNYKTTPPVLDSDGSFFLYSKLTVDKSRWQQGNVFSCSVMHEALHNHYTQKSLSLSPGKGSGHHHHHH
# Experimental: as §2
# [11] = target: T4, Human PD-1 extracellular domain (ECD)-Fc-His6 (human); assay: as above
# T4 construct: also called Human WT PD-1 ECD-Fc fusion
# T4 sequence (chain, as listed by the source limits assumed): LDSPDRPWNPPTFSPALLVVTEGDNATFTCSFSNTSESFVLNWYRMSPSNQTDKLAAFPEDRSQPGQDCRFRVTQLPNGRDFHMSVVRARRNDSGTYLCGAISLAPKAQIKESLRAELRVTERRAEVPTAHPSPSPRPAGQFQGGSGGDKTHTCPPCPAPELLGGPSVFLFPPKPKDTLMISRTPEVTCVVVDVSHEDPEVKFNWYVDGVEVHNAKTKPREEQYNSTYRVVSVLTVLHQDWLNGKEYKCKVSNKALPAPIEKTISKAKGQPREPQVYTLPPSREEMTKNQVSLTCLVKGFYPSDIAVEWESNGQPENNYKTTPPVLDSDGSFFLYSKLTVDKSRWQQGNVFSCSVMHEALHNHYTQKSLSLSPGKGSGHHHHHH
# Experimental: as §2
# [12] = target: T5, Mouse PD-1 ECD-Fc-His6 (mouse); assay: as above
# T5 construct: also called Mouse WT PD-1 ECD-Fc fusion
# Experimental: as §2
# [13] = target: Human PD-1 K78A ECD-Fc-His6 (human); assay: as above
# Chain of Human PD-1 K78A ECD-Fc-His6 (human) (chain, as listed by the source K78A K78A limits assumed): as the sequence (chain, as listed by the source I126A I126A limits assumed) above, with K53A, A101I counted along it
# Experimental: as §2
binder,measurement,setting,value
B1,Kd,[1],3.5 nM
same,Kd,[2],3.2 nM
B2,binding result,[3],binds
same,binding result,[4],binds
same,binding result,[5],binds
same,binding result,[6],binds
same,binding result,[7],binds
same,binding result,[8],binds
same,binding result,[9],binds
same,binding result,[10],binds
same,binding result,[11],binds
same,binding result,[12],binds
same,binding result,[13],binds
B3,Kd,[1],7.2 nM
same,Kd,[2],73 nM
B4,Kd,[1],6.3 nM
same,Kd,[2],49 nM
B5,Kd,[1],5.3 nM
same,Kd,[2],1.2 nM
B6,Kd,[1],3.2 nM
same,Kd,[2],3.9 nM
